# Experimental data published in paper PMC5065529, “Wnt Signalosome Assembly by DEP Domain Swapping of Dishevelled” (Molecular Cell, 2016).
# B1: SNAP-FZD5 (Frizzled 5), wild type [human] / DEP_(414–507)-GFP, minimal DEP domain of DVL2 [human] (parent)
# chain 1: GRGLSVHTDMASVTKAMAAPESGLEVRDRMWLKITIPNAFLGSDVVDWLYHHVEGFPERREARKYASGLLKAGLIRHTVNKITFSEQCYYVFGD
# chain 2: ASKAPVCQEITVPMCRGIGYNLTHMPNQFNHDTQDEAGLEVHQFWPLVEIQCSPDLRFFLCSMYTPICLPDYHKPLPPCRSVCERAKAGCSPLMRQYGFAWPERMSCDRLPVLGRDAEVLCMDYNRSEATTAPPRPFPAKPTLPGPPGAPASGGECPAGGPFVCKCREPFVPILKESHPLYNKVRTGQVPNCAVPCYQPSFSADERTFATFWIGLWSVLCFISTSTTVATFLIDMERFRYPERPIIFLSACYLCVSLGFLVRLVVGHASVACSREHNHIHYETTGPALCTIVFLLVYFFGMASSIWWVILSLTWFLAAGMKWGNEAIAGYAQYFHLAAWLIPSVKSITALALSSVDGDPVAGICYVGNQNLNSLRGFVLGPLVLYLLVGTLFLLAGFVSLFRIRSVIKQGGTKTDKLEKLMIRIGIFTLLYTVPASIVVACYLYEQHYRESWEAALTCACPGHDTGQPRAKPEYWVLMLKYFMCLVVGITSGVWIWSGKTVESWRRFTSRCCCRPRRGHKSGGAMAAGDYPEASAALTGRTGPPGPAATYHKQVSLSHV
# Variants of: B1
# Assay: FZD5-dependent PM recruitment of DEP-GFP (cell scoring)
# Conditions: with DEP_(414–507)-GFP, 100 cells scored in each case
Variant,"screen value (parent: 52, read off a plot)","screen value (parent: 88, read off a plot)"
chain 2 ASKAPVCQEITVPMCRGIGYNLTHMPNQFNHDTQDEAGLEVHQFWPLVEIQCSPDLRFFLCSMYTPICLPDYHKPLPPCRSVCERAKAGCSPLMRQYGFAWPERMSCDRLPVLGRDAEVLCMDYNRSEATTAPPRPFPAKPTLPGPPGAPASGGECPAGGPFVCKCREPFVPILKESHPLYNKVRTGQVPNCAVPCYQPSFSADERTFATFWIGLWSVLCFISTSTTVATFLIDMEAFRYPERPIIFLSACYLCVSLGFLVRLVVGHASVACSREHNHIHYETTGPALCTIVFLLVYFFGMASSIWWVILSLTWFLAAGMKWGNEAIAGYAQYFHLAAWLIPSVKSITALALSSVDGDPVAGICYVGNQNLNSLRGFVLGPLVLYLLVGTLFLLAGFVSLFRIRSVIKQGGTKTDKLEKLMIRIGIFTLLYTVPASIVVACYLYEQHYRESWEAALTCACPGHDTGQPRAKPEYWVLMLKYFMCLVVGITSGVWIWSGKTVESWRRFTSRCCCRPRRGHKSGGAMAAGDYPEASAALTGRTGPPGPAATYHKQVSLSHV [chain 2 R237A],12 % of cells,77 % of cells
chain 2 ASKAPVCQEITVPMCRGIGYNLTHMPNQFNHDTQDEAGLEVHQFWPLVEIQCSPDLRFFLCSMYTPICLPDYHKPLPPCRSVCERAKAGCSPLMRQYGFAWPERMSCDRLPVLGRDAEVLCMDYNRSEATTAPPRPFPAKPTLPGPPGAPASGGECPAGGPFVCKCREPFVPILKESHPLYNKVRTGQVPNCAVPCYQPSFSADERTFATFWIGLWSVLCFISTSTTVATFLIDMERFRYPERPIIFLSACYLCVSLGFLVRLVVGHASVACSREHNHIHYETTGPALCTIVFLLVYFFGMASSIWWVILSLTWFLAAGMKWGNEAIAGYAQYFHLAAWLIPSVKSITALALSSVDGDPVAGICYVGNQNLNSLRGFVLGPLVLYLLVGTLFLLAGFVSLFRIRSVIKQGGTKTDKLEKLMIRIGIFTLLYTVPASIVVACYLYEQHYRESWEAALTCACPGHDTGQPRAKPEYWVLMLKYFMCLVVGITSGVWIWSGKTVESWRRFTSACCCRPRRGHKSGGAMAAGDYPEASAALTGRTGPPGPAATYHKQVSLSHV [chain 2 R510A],49 % of cells,85 % of cells
chain 2 ASKAPVCQEITVPMCRGIGYNLTHMPNQFNHDTQDEAGLEVHQFWPLVEIQCSPDLRFFLCSMYTPICLPDYHKPLPPCRSVCERAKAGCSPLMRQYGFAWPERMSCDRLPVLGRDAEVLCMDYNRSEATTAPPRPFPAKPTLPGPPGAPASGGECPAGGPFVCKCREPFVPILKESHPLYNKVRTGQVPNCAVPCYQPSFSADERTFATFWIGLWSVLCFISTSTTVATFLIDMERFAYPERPIIFLSACYLCVSLGFLVRLVVGHASVACSREHNHIHYETTGPALCTIVFLLVYFFGMASSIWWVILSLTWFLAAGMKWGNEAIAGYAQYFHLAAWLIPSVKSITALALSSVDGDPVAGICYVGNQNLNSLRGFVLGPLVLYLLVGTLFLLAGFVSLFRIRSVIKQGGTKTDKLEKLMIRIGIFTLLYTVPASIVVACYLYEQHYRESWEAALTCACPGHDTGQPRAKPEYWVLMLKYFMCLVVGITSGVWIWSGKTVESWRRFTSRCCCRPRRGHKSGGAMAAGDYPEASAALTGRTGPPGPAATYHKQVSLSHV [chain 2 R239A],11 % of cells,56 % of cells
chain 2 ASKAPVCQEITVPMCRGIGYNLTHMPNQFNHDTQDEAGLEVHQFWPLVEIQCSPDLRFFLCSMYTPICLPDYHKPLPPCRSVCERAKAGCSPLMRQYGFAWPERMSCDRLPVLGRDAEVLCMDYNRSEATTAPPRPFPAKPTLPGPPGAPASGGECPAGGPFVCKCREPFVPILKESHPLYNKVRTGQVPNCAVPCYQPSFSADERTFATFWIGLWSVLCFISTSTTVATFLIDMERFRYPERPIIFLSACYLCVSLGFLVRLVVGHASVACSREHNHIHYETTGPALCTIVFLLVYFFGMASSIWWVILSLTWFLAAGMKWGNEAIAGYAQYFHLAAWLIPSVKSITALALSSVDGDPVAGICYVGNQNLNSLRGFVLGPLVLYLLVGTLFLLAGFVSLFRIRSVIKQGGTKTDKLEKLMIRIGIFTLLYTVPASIVVACYLYEQHYRESWEAALTCACPGHDTGQPRAKPEYWVLMLKYFMCLVVGITSGVWIWSGKTVEAWRRFTSRCCCRPRRGHKSGGAMAAGDYPEASAALTGRTGPPGPAATYHKQVSLSHV [chain 2 S503A],50 % of cells,93 % of cells
chain 2 ASKAPVCQEITVPMCRGIGYNLTHMPNQFNHDTQDEAGLEVHQFWPLVEIQCSPDLRFFLCSMYTPICLPDYHKPLPPCRSVCERAKAGCSPLMRQYGFAWPERMSCDRLPVLGRDAEVLCMDYNRSEATTAPPRPFPAKPTLPGPPGAPASGGECPAGGPFVCKCREPFVPILKESHPLYNKVRTGQVPNCAVPCYQPSFSADERTFATFWIGLWSVLCFISTSTTVATFLIDMERFRYPERPIIFLSACYLCVSLGFLVRLVVGHASVACSREHNHIHYETTGPALCTIVFLLVYFFGMASSIWWVILSLTWFLAAGMKWGNEAIAGYAQYFHLAAWLIPSVKSITALALSSVDGDPVAGICYVGNQNLNSLRGFVLGPLVLYLLVGTLFLLAGFVSLFRIRSVIKQGGTKTDKLEKLMIRIGIFTLLYTVPASIVVACYLYEQHYRESWEAALTCACPGHDTGQPRAKPEYWVLMLKYFMCLVVGITSGVWIWAGKTVESWRRFTSRCCCRPRRGHKSGGAMAAGDYPEASAALTGRTGPPGPAATYHKQVSLSHV [chain 2 S497A],60 % of cells,90 % of cells
chain 2 ASKAPVCQEITVPMCRGIGYNLTHMPNQFNHDTQDEAGLEVHQFWPLVEIQCSPDLRFFLCSMYTPICLPDYHKPLPPCRSVCERAKAGCSPLMRQYGFAWPERMSCDRLPVLGRDAEVLCMDYNRSEATTAPPRPFPAKPTLPGPPGAPASGGECPAGGPFVCKCREPFVPILKESHPLYNKVRTGQVPNCAVPCYQPSFSADERTFATFWIGLWSVLCFISTSTTVATFLIDMERFRYPERPIIFLSACYLCVSLGFLVRLVVGHASVACSREHNHIHYETTGPALCTIVFLLVYFFGMASSIWWVILSLTWFLAAGMKWGNEAIAGYAQYFHLAAWLIPSVKSITALALSSVDGDPVAGICYVGNQNLNSLRGFVLGPLVLYLLVGTLFLLAGFVSLFRIRSVIKQGGTKTDKLEKLMIRIGIFTLLYTVPASIVVACYLYEQHYRESWEAALTCACPGHDTGQPRAKPEYWVLMLKYFMCLVVGITSGVWIWSGKTVESWRAFTSRCCCRPRRGHKSGGAMAAGDYPEASAALTGRTGPPGPAATYHKQVSLSHV [chain 2 R506A],49 % of cells,96 % of cells
